{
  "source": "patent US12275803B2",
  "about": "“Functionalization of biopolymers with growth factor-binding peptides” (Universiteit Twente, priority 2016, dated 2025)",
  "molecules": {"B1": {"name": "soluble VEGF: soluble hVEGF added to the medium during starvation (protein)", "chain": "APMAEGGGQNHHEVVKFMDVYQRSYCHPIETLVDIFQEYPDEIEYIFKPSCVPLMRCGGCCNDEGLECVPTEESNITMQIMRIKPHQGQHIGEMSFLQHNKCECRPKKDRARQENPCGPCSERRKHLFVQDPQTCKCSCKNTDSRCKARQLELNERTCRCDKPRR"}, "B2": {"name": "Noggin: specific BMP-2 inhibitor (protein, UniProt Q13253 28-232, looked up)", "Noggin": "QHYLHIRPAPSDNLPLVDLIEHPDPIFDPKEKDLNETLLRSLLGGHYDPGFMATSPPEDRPGGGGGAAGGAEDLAELDQLLRQRPSGAMPSEIKGLEFSEGLAQGKKQRLSKKLRRKLQMWLWSQTFCPVLYAWNDLGSRFWPRYVKVGSCFSKRSCSVPEGMVCKPSKSVHLTVLRWRCQRRGGQRCGWIPIQYPIISECKCSC"}},
  "key": {"[1]": {"test_system": "TGFB1 reporter cell line (Mink Lung Epithelium Cells, PAI-1 promoter luciferase)", "assay": "Luciferase assay in TGFB1 reporter cell line", "type": "cell-based", "parameters": "dose or concentration left out as unconfirmed", "conditions": "cells on films with immobilized hTGFB1", "experimental": "MLECs were seeded at 64000 cells/cm^2 and allowed to attach overnight at 37° C. in a 5% CO2 incubator. The medium was then replaced by DMEM without FBS and cells incubated for an additional period of 24 hours. Cells were lysed and the luciferase quantified according to the manufacturer's protocol (Promega, E4530). Luciferase values were normalized for DNA content quantified by CyQuant Cell proliferation assay (Invitrogen)."}, "HUVECs": {"test_system": "HUVECs", "assay": "Cell survival of HUVECs after starvation", "type": "cell-based, human", "conditions": "20 ng/mL hVEGF in medium during 24 hours starvation; versus native films without hVEGF", "experimental": "Samples were incubated with 1 μg/mL of VEGF (PeproTech) in 0.5% (v/v) PBS TWEEN®20 (PBST) for one hour with gentle agitation. The films were then washed three times for 10 minutes with 0.5% (v/v) PBST and then with PBS for a further 10 minutes. Next, the films were blocked for one hour with PBS containing 1% (w/v) bovine serum albumin (BSA) and subsequently washed as described above. Afterwards, the films were incubated with a primary antibody (2 μg/mL; rabbit polyclonal anti-human VEGF, PeproTech) in the blocking solution during one hour with agitation. The films were washed as mentioned above and then incubated with a secondary antibody (8 μg/mL; goat anti-rabbit ALEXA FLUOR® 594, Invitrogen) in PBS containing 1% w/v BSA for one hour with gentle agitation. Before image acquisition, the films were washed three times for 10 minutes with […], rinsed three times with PBS and dried under a N2 stream. Fluorescence intensity was quantified using ImageJ. […]\nHUVECs at passage 4 were used for experiments. […] Once detached, fresh medium was added to neutralize the trypsin and the cells were counted. […] After 24 hours, the cells were lysed and the DNA content was quantified by CyQUANT cell proliferation assay (Invitrogen), following the manufacturer's instructions."}, "[2]": {"test_system": "BMP-2 reporter cell line (C2C12 Luc, ID1 promoter luciferase)", "assay": "Luciferase assay in BMP-2 reporter cell line", "type": "cell-based", "conditions": "2 ng/mL inhibitor; response to immobilized hBMP-2", "experimental": "For cell experiments, the sterile films were washed three times with PBS and incubated with concentrated hBMP-2 in PBS for one hour with gentle agitation. Subsequently, the films were extensively washed with TBST (0.5%) and PBS to remove any traces of the washing buffer prior to cell seeding.\nC2C12 Luc express luciferase under the control of a ID1 promoter—a BMP-2 target gene (Zilberberg et al., 2007, BMC Cell Biol. 8(41). DOI: 10.1186/1471-2121-8-41).\nC2C12 Luc were seeded on films at 16,000 cells/cm2 in DMEM medium supplemented with 10% FBS and allowed to attach overnight at 37° C. in a 5% CO2 incubator. The cells were lysed the following day and the luciferase quantified according to the manufacturer's protocol (Promega, E4530). Luciferase values were normalized for DNA content quantified by CyQUANT cell proliferation assay (Invitrogen)."}},
  "data": [
    {"molecule": "Cc1cccc(-c2[nH]c(C(C)(C)C)nc2-c2ccc3c(c2)OCO3)n1.Cl", "note": "[SB-431452, 2-(5-benzo[1,3]dioxol-5-yl-2-tert-butyl-3H-imidazol-4-yl)-6-methylpyridine hydrochloride]", "values": [
      {"measurement": "luciferase activity in presence of TGF-β1 inhibitor", "setting": "[1]", "value": "completely suppressed"}
    ]},
    {"molecule": "B1", "values": [
      {"measurement": "survival of HUVECs (total amount of DNA) with soluble VEGF", "setting": "HUVECs", "value": "significant increase in the amount of DNA"}
    ]},
    {"molecule": "B2", "values": [
      {"measurement": "luciferase activity in presence of BMP-2 inhibitor", "setting": "[2]", "value": "completely suppressed"}
    ]}
  ]
}
